According to US20130071400A1, “LINGO binding molecules and Pharmaceutical Use Thereof” (NOVARTIS AG, priority 2006, published 2013):
Each block holds one molecule with its values, some of them ahead of it.

Columns and labels:
[1] = system: postnatal day 7 rat cerebellar granule neurons (CGN); assay: Neurite outgrowth inhibition assay on spinal cord myelin; type: cell-based; conditions: sub-nM concentrations in vitro
Method: A) P7 CGN cells are incubated for 16 hr on wells coated without spinal cord myelin (no SC, white bars) or wells coated with spinal cord myelin in the absence (SC, red bars) or presence of anti-LINGO-1 IgG4 antibodies, a control anti-lysozyme IgG4 antibody 3207 (green bars) or […] of the ROCK inhibitor Y27632 (yellow bar). […] The experiment is performed in three 96 well plates with an SC and no SC condition per plate to which the effects of the antibodies on that plate are compared and mean neurite length per neuron (μm) is calculated for 500 neurons per well in replicates of 10. The percentage inhibition (white text) is calculated as the percentile difference in mean neurite length/neuron between cells plated on wells coated with and without SC. The percentage disinhibition (black italic text) is calculated as the difference in mean neurite length between cells plated on SC in the presence and absence of anti-LINGO-1 antibody as a percentile of the difference between cells plated on wells coated with and without SC. *p<0.05, **p<0.01 (one way ANOVA, Holm-Sidak comparison to mean neurite length/neuron for cells plated on spinal cord myelin in the absence of antibody).
A) P7 CGN cells are incubated for 8 hr on wells coated without spinal cord myelin (no SC, white bars) or wells coated with spinal cord myelin in the absence (SC, red bars) or presence of anti-LINGO-1 IgG4 antibodies or a control anti-lysozyme IgG4 antibody 3207. The experiment is performed in three 96 well plates with an SC and no SC condition per plate to which the effects of the antibodies on that plate are compared and mean neurite length per neuron (μm) is calculated for 500 neurons per well in replicates of 10. The percentage inhibition (white text) and disinhibition (black italic text) is calculated as above. **p<0.01 (one way ANOVA, Holm-Sidak comparison to mean neurite length/neuron for cells plated on spinal cord myelin in the absence of antibody).
P7 CGN cells are incubated for 8 hr on wells coated without spinal cord myelin (no SC) or wells coated with spinal cord myelin in the absence (SC) or presence of the indicated concentrations of anti-LINGO-1 IgG4 antibodies 4784 or 4785, a control anti-lysozyme IgG4 antibody 3207 or 1 μM Y27632 (ROCK). The experiment is performed in three 96 well plates with an SC and no SC condition per plate to which the effects of the antibodies on that plate are compared and mean neurite length per neuron (μm) is calculated for 500 neurons per well in replicates of 10. The percentage inhibition (white text) and disinhibition (black italic text) is calculated as above. *p<0.05, **p<0.01 (one way ANOVA, Holm-Sidak comparison to mean neurite length/neuron for cells plated on spinal cord myelin in the absence of antibody). […]

[2] = molecular target: T1, cell surface LINGO-1 in CHO-K1-hLINGO-1 cells (Homo sapiens, UniProt Q96FE5); assay: Downregulation of cell surface LINGO-1 (anti-V5 detection, TMB-ELISA); type: cell-based; conditions: 100 nM IgG4, 24 hrs at 37° C., CHO-K1-hLINGO-1 cells (FIG. 6A)
T1 construct: expressed in transfected cells
T1 sequence (Q96FE5 34-614 isoform Q96FE5-2): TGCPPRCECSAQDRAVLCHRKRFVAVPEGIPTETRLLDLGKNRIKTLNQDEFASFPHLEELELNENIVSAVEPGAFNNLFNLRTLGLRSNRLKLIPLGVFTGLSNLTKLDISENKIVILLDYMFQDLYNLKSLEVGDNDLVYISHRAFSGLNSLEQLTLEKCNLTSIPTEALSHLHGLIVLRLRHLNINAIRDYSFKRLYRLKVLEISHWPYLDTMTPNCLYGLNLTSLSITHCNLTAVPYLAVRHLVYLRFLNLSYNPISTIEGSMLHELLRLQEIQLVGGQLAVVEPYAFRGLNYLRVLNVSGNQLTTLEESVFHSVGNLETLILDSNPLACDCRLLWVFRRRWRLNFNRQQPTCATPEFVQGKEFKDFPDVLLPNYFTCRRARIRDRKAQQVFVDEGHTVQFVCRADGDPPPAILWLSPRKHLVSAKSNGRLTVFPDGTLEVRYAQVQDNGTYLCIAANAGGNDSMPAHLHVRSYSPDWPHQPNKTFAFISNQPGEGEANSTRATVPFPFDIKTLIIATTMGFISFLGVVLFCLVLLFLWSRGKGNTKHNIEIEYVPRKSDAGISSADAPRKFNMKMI
Method: A) Untransfected CHO-K1 or CHO-K1-hLINGO-1 cells are incubated at 37° C. for 24 hrs with 100 nM 4784, 4785 and 3207 and LINGO-1 detected at the cell surface by a further incubation at room temperature for 30 min with the anti-V5 antibody. The cells are fixed with 4% PFA, blocked with BSA and bound anti-V5 antibody detected using an anti-mouse-IgG (Fc specific)-POD conjugate that is subsequently developed using a 1-Step™ Turbo TMB ELISA kit. The absorbance at 450 nm is taken as a measure of the amount of LINGO-1 at the cell surface (mean of triplicates±STD). A very low level of anti-V5 antibody binding is observed to untransfected CHO-K1 cells. Incubation of CHO-K1-hLINGO-1 cells with anti-LINGO-1 antibodies but not the control IgG4 3207 result in a significant reduction in the amount of LINGO-1 at the cell surface **p<0.01, one-way ANOVA with a Holm-Sidak comparison to the absorbance following incubation with the control IgG4 3207.
To determine the effect of anti-LINGO-1 antibodies on the amount of cell surface LINGO-1, untransfected CHO-K1 or CHO-K1-hLINGO-1 cells (see Example 1) are incubated at 37° C. for 24 hrs with 100 nM 4784, 4785 or 3207 and cell surface LINGO-1 is subsequently detected with an anti-V5 antibody followed by an anti-mouse IgG (Fc specific)-POD conjugate developed with a 1-Step™ Turbo TMB-ELISA kit (Pierce) (FIG. 6A).

amount of cell surface LINGO-1 (absorbance at 450 nm) [2]: significantly downregulate
B1: IgG4 4784: monoclonal human anti-LINGO-1 IgG4 antibody; VL SEQ ID NO: 4, VH SEQ ID NO: 5 (antibody, V domains shown)
VH: QVQLKESGPALVKPTQTLTLTCTFSGFSLSSSGVGVGWIRQPPGKALEWLAHIGSDDDKYYSTSLKTRLTISKDTSKNQVVLTMTNMDPVDTATYYCARNQQYGDGYPGYFDYWGQGTLVTVSS
VL: DIELTQPPSVSVAPGQTARISCSGDNIGNYYVYWYQQKPGQAPVLVIYEDTNRPSGIPERFSGSNSGNTATLTISGTQAEDEADYYCQSYDNLHEQVFGGGTKLTVLG
modifications: IgG4; 4784 VH; 4784 VL
attenuation of the neurite outgrowth inhibitory activity of adult rat spinal cord myelin [1]: significantly attenuate

amount of cell surface LINGO-1 (absorbance at 450 nm) [2]: significantly downregulate
B2: IgG4 4785: monoclonal human anti-LINGO-1 IgG4 antibody; VL SEQ ID NO: 6, VH SEQ ID NO: 7 (antibody, V domains shown)
VH: QVQLQQSGPGLVKPSQTLSLTCAISGDSVSDNSAAWSWIRQSPGRGLEWLGLIYLRSKWDNDYAVSVKSRITINPDTSKNQFSLQLNSVTPEDTAVYYCARTGRADEFDVWGQGTLVTVSS
VL: DIVLTQPPSVSGAPGQRVTISCSGSSSNIGNNYVSWYQQLPGTAPKLLISRNSKRPSGVPDRFSGSKSGTSASLAITGLQSEDEADYYCSTYDTFSIVFGGGTKLTVLG
modifications: IgG4; 4785 VH; 4785 VL
attenuation of the neurite outgrowth inhibitory activity of adult rat spinal cord myelin [1]: significantly attenuate
